Some targets named below: Lysozyme (UniProt P00698 P00698:19-147); SARS-CoV-2 WT spike S1 (SARS-CoV-2, UniProt P0DTC2 P0DTC2:14-685); PD-L1 (UniProt Q9NZQ7 Q9NZQ7:19-238).
The target of data set [1] is SARS-CoV-2 WT spike S2 domain (SARS-CoV-2, UniProt P0DTC2 P0DTC2:686-1213).
For data set [2], the target named is SARS-CoV-2 WT spike S1S2 extracellular domain (SARS-CoV-2, UniProt P0DTC2).
For data set [3], the target named is Bovine serum albumin (BSA) (Bos taurus, UniProt P02769 P02769:25-607).

Six molecules from patent US20250340890, “DNA […] AS UNIVERSAL INHIBITORS OF SPIKE PROTEIN/HACE2 INTERACTIONS” (Bowling Green State University, published 2025) can be followed below.

Bovine serum albumin (BSA), sequence (P02769 25-607, one chain of several): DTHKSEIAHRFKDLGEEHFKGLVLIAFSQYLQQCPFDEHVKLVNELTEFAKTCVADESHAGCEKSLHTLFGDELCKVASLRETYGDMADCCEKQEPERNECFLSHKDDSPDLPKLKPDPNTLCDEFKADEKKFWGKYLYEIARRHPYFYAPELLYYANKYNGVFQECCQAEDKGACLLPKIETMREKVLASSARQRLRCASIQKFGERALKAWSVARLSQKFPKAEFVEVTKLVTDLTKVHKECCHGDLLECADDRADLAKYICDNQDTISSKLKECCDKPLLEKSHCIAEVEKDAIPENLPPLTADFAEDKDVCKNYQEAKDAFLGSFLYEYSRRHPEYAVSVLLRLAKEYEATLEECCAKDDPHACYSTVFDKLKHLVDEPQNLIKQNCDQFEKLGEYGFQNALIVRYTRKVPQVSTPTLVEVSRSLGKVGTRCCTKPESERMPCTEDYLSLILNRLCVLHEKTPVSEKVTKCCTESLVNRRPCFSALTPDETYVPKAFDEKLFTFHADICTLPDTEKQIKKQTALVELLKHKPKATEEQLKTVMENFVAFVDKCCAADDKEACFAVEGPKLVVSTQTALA
PD-L1, sequence (Q9NZQ7 19-238, one chain of several): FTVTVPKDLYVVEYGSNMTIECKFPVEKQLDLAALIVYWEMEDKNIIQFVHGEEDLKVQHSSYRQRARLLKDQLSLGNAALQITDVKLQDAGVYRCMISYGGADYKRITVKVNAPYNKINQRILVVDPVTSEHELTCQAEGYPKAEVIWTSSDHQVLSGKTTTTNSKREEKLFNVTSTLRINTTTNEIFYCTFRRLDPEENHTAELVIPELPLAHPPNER
Lysozyme, sequence (P00698 19-147, one chain of several): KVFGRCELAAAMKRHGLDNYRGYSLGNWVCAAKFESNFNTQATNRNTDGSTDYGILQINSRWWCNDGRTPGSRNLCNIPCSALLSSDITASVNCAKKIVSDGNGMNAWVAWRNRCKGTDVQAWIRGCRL

B1: S2A2C3 (ssDNA)
DNA: CAAGGAGCGACCAGAGGCGGGTTCCTAGACTTGTACTCAGCCT
B1: the binding result in data set [1] is given as “binds”.

B2: S2A1C1 (ssDNA)
DNA: CAAGGAGCGACCAGAGGGGCGGTTTATCAACAACTCGCTCTGTACACCACTCTTTG
Consider B2, for which the binding result in data set [1] is reported as “binds”.

B3: S2A2 (ssDNA)
DNA: CAAGGAGCGACCAGAGGCGGGTTCCTAGACTTGTACTCAGCCTTTACAGCTATGCCCTGGCATCCTTCAGCCC
Regarding B3, the binding result in data set [2] is “binds”.

B4: S2A1 (ssDNA)
DNA: CAAGGAGCGACCAGAGGGGCGGTTTATCAACAACTCGCTCTGTACACCACTCTTTGTTGGCATCCTTCAGCCC
Take B4: the binding result in data set [2] was “binds”.

B5: A1C1 (ssDNA)
DNA: CGGGACGACGACGGACATCGTGAGAAATGGTCGACCTTGTGTCTGTCGTCCCG
Consider B5, for which the binding result in data set [3] was “no binding”.

B6: S2A2C1 (ssDNA)
DNA: AGGCGGGTTCCTAGACTTGTACTCAGCCT
For B6, the binding result (in data set [3]; with Lysozyme; in the data set with SARS-CoV-2 WT spike S1; with PD-L1) was “no binding” each time.
